Measurements taken from US20240026036A1 (AstraZeneca / MedImmune, published 2024).

What was measured:
[1] = biological target: Recombinant human NGF (Sigma) (human, UniProt P01138 122-241); test: cell-based or functional assay
[2] = biological target: Recombinant mouse NGF (R&D Systems) (mouse, UniProt P01139 122-241); test: cell-based or functional assay
Sequence of Recombinant mouse NGF (R&D Systems) (P01139 122-241 limits assumed): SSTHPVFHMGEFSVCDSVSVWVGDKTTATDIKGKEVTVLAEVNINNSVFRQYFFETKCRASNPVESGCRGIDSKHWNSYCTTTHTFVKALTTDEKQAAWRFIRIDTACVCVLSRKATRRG

Sequence of Recombinant human NGF (Sigma) (P01138 122-241 limits assumed): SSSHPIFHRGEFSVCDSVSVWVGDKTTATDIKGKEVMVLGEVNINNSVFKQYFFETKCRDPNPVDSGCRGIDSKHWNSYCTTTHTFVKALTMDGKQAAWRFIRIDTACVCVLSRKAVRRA

B1: MEDI-578 IgG1 TM YTE (antibody, V domains shown)
VH: QVQLVQSGAEVKKPGSSVKVSCKASGGTFSTYGISWVRQAPGQGLEWMGGIIPIFDTGNSAQSFQGRVTITADESTSTAYMELSSLRSEDTAVYYCARSSRIYDLNPSLTAYYDMDVWGQGTMVTVSS
VL: QSVLTQPPSVSAAPGQKVTISCSGSSSNIGNNYVSWYQQLPGTAPKLLIYDNNKRPSGIPDRFSGSKSGTSATLGITGLQTGDEADYYCGTWDSSLSAWVFGGGTKLTVL
**Q.** For B1, which “IC50 (read off the curve)” value [1] is on record?
**A.** ~0.8 nM

**Q.** And the “IC50 (read off the curve)” value [2]?
**A.** ~0.3 nM
